B1: TPR t1 (parent)
chain: GACCAAUCUGCCCUCAGAGCUCGAGAACAUCUUCGGAUGCAGAGGAGGCAGGCUUCGGUGGCGCGAUAGCGCCAACGUCCUCAACCUCCAAUGCAUCCCACCACAUGAUGAUGCCUGAAGAGCCUUGGUUUUUUG

Variants of: B1
Experiment: polymerase ribozyme fitness, log enrichment relative to wild type (log ratio); higher = more active; in vitro selection for triplet polymerase activity
Method in brief: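 Fitness is a logarithmic measure of how a genotype enriched relative to the wild type, with replicate averages weighted by inverse variance. The logarithm uses base 2, and enrichment came from Illumina sequencing of input and output libraries. Those libraries were PCR-built, transcribed mutants of each subunit of a heterodimeric triplet polymerase ribozyme, passed through one triplicate in vitro selection round that included frozen incubation at −7 °C, gel excision of extended constructs and streptavidin-bead capture. Genotypes were kept only if they had ≥10 input reads and ≥1 read per output.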

Row | Variant | polymerase ribozyme fitness (log ratio)
1 | GACCAAUCUGCCCUCAGAGCUCGAGAACAUCUUCGGAUACAGAGGAGGCAGGCUUCGGUGGCGCGAUAUCGCCAACGUCCUCAACCUCCAAUGCAUCCAACCACAUGAUGAUGCCUGAAGAGCCUUGGUUUUUUG | -4.04
2 | GACCAAUCUGCCCUCAGAGCUCGAGAACAUCUUCGGAUACAGAGGAGGCAGGCUUCGGUGGCGCGAUAGGGCCAACGUCCUCAACCUCCAAUGCAUCCCACCACAUGAUGAGGCCUGAAGAGCCUUGGUUUUUUG | -4.63
3 | GACCAAUCUGCCCUCAGAGCUCGAGAACAUCUUCGGAUACAGAGGAGGCAGGCUUCGGUGGCGCGAUAGCGCCAACGUCCACAACCUUCAAUGCAUCCCACCACAUGAUGAUGCCUGAAGAGCCUUGGUUUUUUG | -0.679
4 | GACCAAUCUGCCCUCAGAGCUCGAGAACAUCUUCGGAUACAAAGGGGGCAGGCUUCGAUGGCGCGAUAGCGCCAACGUCCUCAACCUCCAAUGCAUCCCACCACAUGAUGAUGCCUGAAGAGCCUUGGUUUUUUG | -2.47
5 | GACCAAUCUGCCCUCAGAGCUCGAGAACAUCUUCGGAUACAGAGGAGGCAGGCUUCGGUGGCGCGAUAGCGCCAACGUCCUCAACCUCCAAUGCAUCCCACCACAUGAUGAUGCCUGAAGAGCGUUGGUUUUUUG | 1.36
6 | GACCAAUCUGCCCUCAGAGCUCGAGAACAUCUUCGGAUACAGAGGAGGCAGGCUUCGGUGGCGCGAUAGCGCCAACGUCCUCAACCUCCAAUGCAUCCCACCACAUGAUGAUGCCUGAAGAGCAUUGGUUUUUUG | 1.38
7 | GACCAAUCUGCCCUCAGAGCUCGAGAACAUCUUCGGAUCCAGAGGAGGCCGGCUUGGGUGGCGCGAUAGCACCAACAUCCUCAACCUCCUAUGCAACCCACCACAUGAUGAUGCCUGAAGAGCCUUGGUUUUUUG | -4.32
8 | GACCAAUCUGCCCUCAGAGCUCGAGAACAUCUUCGGAUACAGAGGAUGCAGGCUUCGGUGGCGCGAUAGCGCCAACGUCCUCAACCUCCAAUGCAUCCCACCACAUGAUGAUGCCUGAAGAGCCUUGGUUUUUUG | -2.07
9 | GACCAAUCUGCCCUCAGAGCUCGAGAACAUCUUCGGAUACAGAGGAGGCAUGCUUCGGUGGCGCGAUAGCGCCAACGUUCUCAACCUCCAAUGCAUCCCAUCACAUGAUGAUGCCUGAAGAGCCUUGGUUUUUUG | -5.14
10 | GACCAAUCUGCCCUCAGAGCUCGAGAACAUCUUCGGAUACAGAGGAGGCAGGCUUCGGUGGCGUGAUAGCGCCAACGUCCUCAACCUCCAAUGCAUCGCACCCCAUGAUGGUGCCUGAAGAGCCUUGGUUUUUUG | -7.64
11 | GACCAAUCUGCCCUCAGAGCUCGAGAACAUCUUCGGAUACAGAGGAGGCAGGCUUCGGUGGCGCGAUAGCGGCAACGUCCUCAACCUCCAAUGCAUCCCACCACGUGAUGAUGCCUGAAGAGCCUUGGUUUUUUG | -2.86
12 | GACCAAUCUGCCCUCAGAGCUCGAGAACAUCUUCGGAUCCAGAGGAGGCAGGCUUCGGUGGCGCGAUAGCGUCAACGUCCUCAACCUCCAAUUCAUCCCACCACAUGAUGAUGCCUGAAGUGCCUUGGUUUUUUG | 0.127
13 | GACCAAUCUGCCCUCAGAGCUCGAGAACAUCUUCGGAUACAGAGGAGGCAGGCUUCGAUGGCGCGAUAGCGCCAACGUCCUCAACCUCCAAUGCAUCCCACCACAUGAUGAUGCCUGAAGAGCCUUGGUUUUUUG | -1.7
14 | GACCAAUCUGCCCUCAGAGCUCGAGAACAUCUUCGGAUCCAGAGGAGGCAGGCUUCGGUGGCGCGAUAGUGCCAACGUCCUCAACCUCCAAUGCAUCCCAACACAUGAUGAUGCCUGAAGAGCCUUGGUUUUUUG | -2.67
15 | GACCAAUCUGCCCUCAGAGCUCGAGAACAUCUUCGGAUACAGAGGAGGCAGGCUUCGGUGACGCGAUAGCGCCAACGUCCUCAACCUCAAAUGCAUCCCACCACAUGAUGAUGCCUGAACAGCCUUGGUUUUUUG | -1.19
16 | GACCAAUCUGCCCUCAGAGCUCGAGAACAUCUUCGGAUCCAGAGGAGGCAGGCUUAGGUGGCGCGAUAGCGCCAACGUCCUCAACCUCCAAUGCAUCCCACCACAUGAUGAUGCCUGAAGAGCCUUGGUUUUUUG | -0.765
17 | GACCAAUCUGCCCUCAGAGCUCGAGAACAUCUUCGGAUACAGAGGAGGCAGGCUUCGGUGGCGCGAUAACGCCAACGUCCUCAACCUCCAAUGCAUCCCACCACAUGAUGAUGCCUGAAGUGCCUUGUUUUUUUG | -3.24
18 | GACCAAUCUGCCCUCAGAGCUCGAGAACAUCUUCGGAUACAGAGGAGGCAGGCUUCGGUGGCGCGAUAGCGCCAACGUCCUCAACCUCCAAUGCAUCCCACCACAUGAUCAUGCCUGAAGAGCCUUGGUUUUUUG | -4.65
19 | GACCAAUCUGCCCUCAGAGCUCGAGAACAUCUUCGGAUACAGAGGAGGCAGGCUUCGGUGGCGCGAUAGCGCCAACGUCCUCAACCUCCAAUGCAUACCACCACAUGAUGAUGCCUGAACAGCCUUGGUUUUUUG | -6.66
20 | GACCAAUCUGCCCUCAGAGCUCGAGAACAUCUUCGGAUACAGAGGAGGCAGGCUUCGGUGGCGCGAUAGCGCCAACGUCCUCAACCUCCAAUGCACCCCACCACAUGAUGAUGCCUGAAGAGCCUUGGUUUUUUG | -0.886
21 | GACCAAUCUGCCCUCAGAGCUCGAGAACAUCUUCGGAUACAGAGGAGACAGGCUUCGGUGGCGCGAUAGCGCCAACGUCCUCAACCUCCAAUGCAUCCCCCCACAUGAUGAUGCCUGAAAAGCCUUGGUUUUUUG | -1.06
